Assay results: paper PMC4264199, “Peptide Array on Cellulose Support—A Screening Tool to Identify Peptides with Dipeptidyl-Peptidase IV Inhibitory Activity within the Sequence of α-Lactalbumin” (International Journal of Molecular Sciences, 2014)
Ends that are not written are not given here.

How the values were obtained:
[1] = molecular target: T1, dipeptidyl-peptidase IV (DPP-IV) (Homo sapiens, UniProt P27487); test: DPP-IV inhibition assay on SPOT-synthesized peptides (cleaved from cellulose membrane); type: biochemical; settings: peptides cleaved from cellulose membrane, concentration not known (semi-quantitative); averages of four determinations from two experiments
T1 construct: purchased Creative BioMart (Shirley, NY, USA); host or cells: HEK293 human cells
Description: (§1) Recombinant human dipeptidyl-peptidase IV (DPP-IV, EC 3.4.14.5, expressed in HEK293 human cells, >95% purity, activity >5500 pmoles Gly–Pro–7-amido-4-methylcoumarin/min/µg) was purchased from Creative BioMart (Shirley, NY, USA) while polyclonal goat DPP-IV antibody and polyclonal donkey anti-goat secondary antibody conjugated to horseradish peroxidase were obtained from R&D Systems (Minneapolis, MN, USA). Pierce™ ECL western blotting substrate and protein-free (TBS) blocking buffer were from Thermo Scientific (Rockford, IL, USA). Gly–Pro–p-nitroanilide (H-Gly–Pro–p-NA∙HCl) was purchased from Bachem Americas (Torrance, CA, USA). Synthesized peptides (≥95% purity) were prepared and purified by GL Biochem (Shanghai) Ltd. (Shanghai, China).
Peptide arrays of deca-peptides spanning the entire α-lactalbumin sequence with a frame shift of one amino acid between successive sequences were prepared by Kinexus Bioinformatics Corporation (Vancouver, BC, Canada). The peptides were synthesized from the C-terminal amino acid using the SPOT technology consisting of the stepwise coupling of the Fmoc-protected amino acids and cleavage of the side chain protection groups. The α-lactalbumin-derived peptides were synthesized on trioxatridecanediamine (TOTD) and β-alanine-modified Whatman 540 cellulose membranes for the binding and inhibition assays, respectively. For the inhibition assay, the peptides were synthesized in large dots (5–7 mm in diameter) and the quality of the synthesis was verified by HPLC analysis of quality controls spots included on the membranes.
In order to determine the effect of the SPOT-synthesized peptides on the activity of the DPP-IV enzyme, the peptides were first cleaved from the cellulose support by incubating the membranes with gaseous ammonia overnight. Peptide spots (5 mm in diameter) were then punched out using a single-hole punch and transferred into microcentrifuge tubes containing 150 µL of acetonitrile (50% in 100 mM Tris–HCl buffer pH 8.0). The peptide solution (50 µL) was pipetted into a 96-well microplate with 35 µL of the chromogenic substrate Gly–Pro–p-NA (0.29 mM in 100 mM Tris–HCl buffer pH 8.0). The mixture was pre-incubated for 10 min at 37 °C, whereupon 15 µL of DPP-IV (25 mU/mL) was added and the enzymatic reaction was carried out for 30 min at 37 °C. The reaction was then terminated by addition of 100 µL of 1 M sodium acetate buffer pH 4.0 and the absorbance of the released p-nitroaniline was measured at 405 nm using a Tecan Infinite® 200 Pro microplate reader (ESBE Scientific, Markham, ON, Canada). Positive and negative controls (DPP-IV activity with no inhibitor and no DPP-IV activity, respectively) were prepared using punched peptide-free cellulose spots from the same membrane used for peptide synthesis, and adding Tris-HCl buffer in place of the sample and in place of the sample and enzyme solution, respectively.
One unit of DPP-IV was defined as the concentration of enzyme that releases 1 µmol per min of p-nitroaniline from Gly–Pro–p-NA (100 µM) at 37 °C and pH 8.0.

[2] = molecular target: T1, dipeptidyl-peptidase IV (DPP-IV); test: DPP-IV inhibition assay on traditionally-synthesized peptides; type: biochemical; settings: 250 µM of peptides (final assay concentration); averages of three determinations
Description: as §1
The peptides were dissolved in a mixture of acetonitrile and H2O and further diluted in 100 mM Tris-HCl pH 8.0 buffer to the desired concentrations. In a 96-well microplate, 25 µL of sample were pre-incubated with 25 µL of 100 mM Tris-HCl pH 8.0 buffer and 35 µL of Gly–Pro–p-NA (0.29 mM in 100 mM Tris-HCl buffer pH 8.0) at 37 °C for 10 min. The enzymatic reaction was started by addition of 15 µL of DPP-IV solution (25 mU/mL) and carried out at 37 °C for 30 min. Sodium acetate buffer (1 M, pH 4.0, 100 µL) was added to stop the reaction and the absorbance of the released p-nitroaniline was measure at 405 nm using a Tecan Infinite® 200 Pro microplate reader. The positive and negative controls were prepared by using Tris-HCl buffer (100 mM, pH 8.0) in place of the sample and in place of the sample and enzyme solution, respectively.

[3] = molecular target: T1, dipeptidyl-peptidase IV (DPP-IV); test: Probing of membrane-bound peptide arrays: binding of DPP-IV to deca-peptides (immunoassay, chemiluminescence); settings: peptide array on cellulose membrane, DPP-IV 10 μg/mL
Experimental: The interaction between the DPP-IV enzyme and deca-peptides spanning the entire α-lactalbumin sequence (Table S1) was first determined by immunoassay and visualized using an enhanced chemiluminescence substrate (Figure 1).
The membranes were first blocked with protein-free (Tris-buffered saline (TBS)) blocking buffer containing 0.05% Tween-20 for 4 h at room temperature and then incubated with DPP-IV (10 μg/mL in blocking buffer) overnight at 4 °C. The membranes were washed with TBS (50 mM Tris, 136 mM NaCl, 0.05% Tween-20, pH 8.0) four times for 15 min each, after which they were incubated with the polyclonal goat DPP-IV antibody (0.2 µg/mL) for 8 h at 4 °C. The membranes were once again washed with TBS four times for 15 min each prior to being incubated with anti-goat secondary antibody conjugated to horseradish peroxidase (0.1 µg/mL) overnight at 4 °C. Finally, the membranes were washed four more times for 15 min each; then a thin layer of chemiluminescence detection mixture, prepared according to the manufacturer’s instructions, was applied for 1 min and the luminescence generated from the spots on the membranes with bound DPP-IV was measured using a ChemiDoc™ MP system (Bio-Rad Laboratories (Canada) Ltd., Mississauga, ON, Canada).

T1 sequence (P27487 whole entry): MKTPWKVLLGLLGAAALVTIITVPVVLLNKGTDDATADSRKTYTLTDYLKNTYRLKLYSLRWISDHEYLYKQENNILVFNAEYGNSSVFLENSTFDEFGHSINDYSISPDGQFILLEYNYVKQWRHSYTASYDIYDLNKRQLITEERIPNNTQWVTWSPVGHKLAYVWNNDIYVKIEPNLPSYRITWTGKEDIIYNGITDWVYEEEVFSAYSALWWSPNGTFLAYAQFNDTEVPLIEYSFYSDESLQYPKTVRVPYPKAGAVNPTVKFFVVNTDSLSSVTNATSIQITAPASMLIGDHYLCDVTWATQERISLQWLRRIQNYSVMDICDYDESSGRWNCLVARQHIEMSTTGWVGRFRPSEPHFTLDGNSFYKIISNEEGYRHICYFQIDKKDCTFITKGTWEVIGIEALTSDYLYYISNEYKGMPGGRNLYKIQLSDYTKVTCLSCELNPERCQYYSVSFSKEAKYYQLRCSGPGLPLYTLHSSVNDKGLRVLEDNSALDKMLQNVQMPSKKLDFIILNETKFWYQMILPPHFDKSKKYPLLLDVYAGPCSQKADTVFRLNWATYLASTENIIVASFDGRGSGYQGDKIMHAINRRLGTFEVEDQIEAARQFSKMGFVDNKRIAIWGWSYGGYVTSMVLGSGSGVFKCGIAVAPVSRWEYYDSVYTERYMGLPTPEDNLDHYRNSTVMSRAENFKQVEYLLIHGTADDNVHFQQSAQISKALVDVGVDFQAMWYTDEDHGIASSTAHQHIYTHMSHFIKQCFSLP

| Percent inhibition of DPP-IV activity, SPOT-synthesized deca-peptides [1] [%] | Binding of DPP-IV to cellulose-bound deca-peptide (in words) [3] | Substance | inhibition at 250 µM [2] [%] |
| --- | --- | --- | --- |
| 31 | moderate or no binding | ICNISCDKFL [G6] |  |
| 16 |  | I8: α-lactalbumin-derived deca-peptide, residues 96–105 (Table S1) (LDKVGINYWL; UniProt P00711 115-124, looked up, fragment) |  |
| 15 |  | B7: α-lactalbumin-derived deca-peptide, residues 18–27 (Table S1) (YGGVSLPEWV; UniProt P00711 37-46, looked up, fragment) |  |
| 19 |  | G4: α-lactalbumin-derived deca-peptide, residues 70–79 (Table S1) (SNICNISCDK; UniProt P00711 89-98, looked up, fragment) |  |
| 17 |  | A9: α-lactalbumin-derived deca-peptide, residues 9–18 (Table S1) (FRELKDLKGY; UniProt P00711 28-37, looked up, fragment) |  |
| 15 |  | B9: α-lactalbumin-derived deca-peptide, residues 20–29 (Table S1) (GVSLPEWVCT; UniProt P00711 39-48, looked up, fragment) |  |
| 25 |  | H7: α-lactalbumin-derived deca-peptide, residues 84–93 (Table S1) (DLTDDIMCVK; UniProt P00711 103-112, looked up, fragment) |  |
| 14 |  | D5: α-lactalbumin-derived deca-peptide, residues 38–47 (Table S1) (TQAIVQNNDS; UniProt P00711 57-66, looked up, fragment) |  |
| 15 |  | VSLPEWVCTT [B10] |  |
| 11 |  | YGLFQINNKI [E6] |  |
| 13 |  | LFQINNKIWC [E8] |  |
| 14 |  | D6: α-lactalbumin-derived deca-peptide, residues 39–48 (Table S1) (QAIVQNNDST; UniProt P00711 58-67, looked up, fragment) |  |
| 8 |  | ELKDLKGYGG [A11] |  |
| 24 |  | KALCSEKLDQ [J9] |  |
| 16 |  | A6: α-lactalbumin-derived deca-peptide, residues 6–15 (Table S1) (CEVFRELKDL; UniProt P00711 25-34, looked up, fragment) |  |
| 18 |  | H2: α-lactalbumin-derived deca-peptide, residues 79–88 (Table S1) (KFLDDDLTDD; UniProt P00711 98-107, looked up, fragment) |  |

| Percent inhibition of DPP-IV activity, SPOT-synthesized deca-peptides [1] [%] | Binding of DPP-IV to cellulose-bound deca-peptide (in words) [3] | Substance | inhibition at 250 µM [2] [%] |
| --- | --- | --- | --- |
| 22 |  | I10: α-lactalbumin-derived deca-peptide, residues 98–107 (Table S1) (KVGINYWLAH; UniProt P00711 117-126, looked up, fragment) |  |
| 11 |  | HTSGYDTQAI [C10] |  |
| 24 |  | EKLDQWLCEK [K3] |  |
| 19 |  | H1: α-lactalbumin-derived deca-peptide, residues 78–87 (Table S1) (DKFLDDDLTD; UniProt P00711 97-106, looked up, fragment) |  |
| 20 |  | I6: α-lactalbumin-derived deca-peptide, residues 94–103 (Table S1) (KILDKVGINY; UniProt P00711 113-122, looked up, fragment) |  |
| 20 |  | FQINNKIWCK [E9] |  |
| 14 |  | RELKDLKGYG [A10] |  |
| 22 |  | CSEKLDQWLC [K1] |  |
| 11 |  | G1: α-lactalbumin-derived deca-peptide, residues 67–76 (Table S1) (PHSSNICNIS; UniProt P00711 86-95, looked up, fragment) |  |
| 21 |  | INNKIWCKDD [E11, INNKIWCKDD] |  |
| 20 |  | H10: α-lactalbumin-derived deca-peptide, residues 87–96 (Table S1) (DDIMCVKKIL; UniProt P00711 106-115, looked up, fragment) |  |
| 20 |  | A3: α-lactalbumin-derived deca-peptide, residues 3–12 (Table S1) (FTKCELSQLL; UniProt P00709 22-31, looked up, fragment) |  |
| 14 |  | DSTEYGLFQI [E2] |  |
| 18 |  | G9: α-lactalbumin-derived deca-peptide, residues 75–84 (Table S1) (ISCDKFLDDD; UniProt P00711 94-103, looked up, fragment) |  |
| 22 |  | I9: α-lactalbumin-derived deca-peptide, residues 97–106 (Table S1) (DKVGINYWLA; UniProt P00711 116-125, looked up, fragment) |  |
| 19 |  | KIWCKDDQNP [F3] |  |

| Substance | Percent inhibition of DPP-IV activity, SPOT-synthesized deca-peptides [1] [%] | Binding of DPP-IV to cellulose-bound deca-peptide (in words) [3] | inhibition at 250 µM [2] [%] |
| --- | --- | --- | --- |
| DTQAIVQNND [D4, DTQAIVQNND] | 14 |  | 2 |
| TSGYDTQAIV [C11, TSGYDTQAIV] | 14 |  | -1 |
| FHTSGYDTQA [C9, FHTSGYDTQA] | 12 |  | 2 |
| QNPHSSNICN [F10, QNPHSSNICN] | 8 |  | 2 |
| CKDDQNPHSS [F6, CKDDQNPHSS] | 15 |  | -3 |
| EQLTKCEVFR [A1, EQLTKCEVFR] | 11 |  | 10 |
| GYGGVSLPEW [B6, GYGGVSLPEW] | 17 |  | 8 |
| VFRELKDLKG [A8, VFRELKDLKG] | 14 |  | 3 |
